Results published in paper PMC11370580.

Experiments:
[1] = system: HMGB1-WT (Homo sapiens); assay: restriction enzyme accessibility
[2] = system: HMGB1-WT (Homo sapiens); assay: EMSA; settings: scale: fold lower affinity than with flanking DNA

Substance	K half [1] [nM]	binding signal [2]
40/40-Pst137 nucleosome	113	–
core nucleosome (0/0)	–	10
